Experimental data reported in publication PMC8413462.

Target: T1, Snu13 (Saccharomyces cerevisiae) (UniProt P39990)
T1 sequence: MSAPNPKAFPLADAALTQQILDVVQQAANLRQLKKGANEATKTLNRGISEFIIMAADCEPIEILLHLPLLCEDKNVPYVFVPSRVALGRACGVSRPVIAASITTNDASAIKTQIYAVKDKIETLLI
Assay: EMSA
Conditions: EMSA: annealed in 10 mM Tris-HCl, 100 mM NaCl, 1 mM EDTA, pH 7.5; 4 C, 10% native PAGE; 10 pmol Cy5-RNA (~2 uM) or 0.5 nmol unlabeled RNA. RNP: 20 mM Na …

In the case of snR41-kl1, the Kd is reported as > 10 µM.
